Assay results reported in US20200231681A1 (CHONG KUN DANG PHARMACEUTICAL, published 2020).

B1: hu8C4 AH71 (antibody, V domains shown)
VH: EVQLVESGGGLVQPGGSLRLSCAASGYTFSDYYINWVRQAPGKGLEWIGEIFPGWGNTHFSARFKGRATLSADKSKNTAYLQMNSLRAEDTAVYYCAGQDYGFLYWGQGTLVTVSS
VL: DIQMTQSPSSLSASVGDRVTITCGASENIYGALNWYQQKPGKAPKLLIYGATNLADGVPSRFSGSGSGRDFTFTISSLQPEDIATYYCQNVLSSPYTFGQGTKVEIK
B2: hu8C4 × Vectibix scFv bispecific antibody (bispecific antibody, human IgG2)
heavy: not shown
VL: B1 VL

What was measured:
[1] = molecular target: T1, human c-Met ECD (ACROBiosystems, MET-H5227) (human, UniProt P08581 25-932); test: SPR (BIAcore), antibody captured by anti-human IgG Fc, antigen as analyte, 1:1 Langmuir
T1 construct: extracellular domain; Bought protein
Protocol: (§1) The antibodies were diluted in HBS-EP buffer (0.01 M HEPES pH 7.4, 0.15 M NaCl, 3 mM EDTA and 0.005% (v/v) Surfactant P20) at a concentration of 1-2 μg/ml, after which the resulting antibodies were injected into a CM5 chip with an anti-human Ig Fc fixed thereto at a flow rate of 30 μl/min for 10-120 seconds, and then captured in a range of 150-200 RU. Each antigen was used after being diluted at 10, 5, 2.5, 1.25, 0.625, 0.3125 and 0.15625 nM, after which the resulting antigens were sequentially injected from a lower concentration. Then, the resulting antigens were injected at a flow rate of 30 μl/min for 5 minutes to carry out binding, after which a running buffer was injected thereinto for 10-15 minutes to carry out a dissociation. 15 μl of 10 mM Glycine-HCl (pH 1.5) was used to revive the chip.

[2] = molecular target: T2, cynomolgus monkey c-Met ECD (SiNo. Biological, 90304-CO8H) (cynomolgus monkey, UniProt A0A2K5UM36 25-932); test: as above
T2 construct: not shown: The vendor's tag
Protocol: as §1

[3] = molecular target: T3, human EGFR ECD strep (ACROBiosystems, EGR-H5285) (human, UniProt P00533 25-645); test: as above
T3 construct: extracellular domain; Bought protein
Protocol: as §1

[4] = molecular target: T4, cynomolgus monkey EGFR ECD (SiNo. Biological, 90285-008B) (cynomolgus monkey); test: as above
T4 construct: extracellular domain
Protocol: as §1

[5] = molecular target: T5, mouse c-Met (SiNo. Biological Inc, 50622-M08H) (mouse, UniProt P16056 25-931); test: ELISA, antigen coated at 2 µg/ml, antibody 6.4 pM to 100 nM, anti-human IgG F(ab')2-HRP, TMB, O.D. at 450 nm [panel Mouse cMet]
T5 construct: extracellular domain
Protocol: (§2) Particularly, mouse c-Met (SiNo. Biological Inc, 50622-M08H), cynomolgus monkey c-Met (SiNo. Biological Inc, 90304-CO8H), human c-Met (R&D Systems, 358-MT), mouse EGFR (SiNo. Biological Inc, 51091-M08H), cynomolgus monkey EGFR (SiNo. Biological, 90285-008B) and human EGFR (Abcam, 155639) antigens were all divided into a 96-well plate at a concentration of 2 μg/ml, after which the resulting plate was reacted at 4° C. overnight.
(§3) Color development was made by using TMB (Sigma, T4444) solution, wherein its value was measured at an optical density of 450 nm and its ELISA results are shown in FIG. 9.

[6] = molecular target: T6, mouse EGFR (SiNo. Biological Inc, 51091-M08H) (mouse, UniProt Q01279 25-647); test: ELISA, antigen coated at 2 µg/ml, antibody 6.4 pM to 100 nM, anti-human IgG F(ab')2-HRP, TMB, O.D. at 450 nm [panel Mouse EGFR]
T6 construct: extracellular domain
Protocol: as §2, §3

Row | Binder | Kd [1] [nM] | koff [1] [s⁻¹] | kon [1] [M⁻¹ s⁻¹] | Kd [2] [nM] | koff [2] [s⁻¹] | kon [2] [M⁻¹ s⁻¹] | Kd [3] [nM] | koff [3] [s⁻¹] | kon [3] [M⁻¹ s⁻¹] | Kd [4] [nM] | koff [4] [s⁻¹] | kon [4] [M⁻¹ s⁻¹] | binding result [5] | binding result [6]
1 | B1 | 0.0999 | 8.3e-05 | 831000 | – | – | – | – | – | – | – | – | – | – | –
2 | B2 | 0.278 | 0.000204 | 734000 | 0.434 | 0.000337 | 777000 | 1.62 | 0.000126 | 77800 | 0.894 | 0.000127 | 142000 | no binding (tested: 100 nM) | no binding (tested: 100 nM)
